In paper PMC10899660 (2024) one finds Kd and koff data, which are given here for four molecules.

Sequences and labels used below:
B1: Recombinant Cyclin H (CCNH) protein with a C-HIS tag (natural protein)
chain: MYHNSSQKRHWTFSSEEQLARLRADANRKFRCKAVANGKVLPNDPVFLEPHEEMTLCKYYEKRLLEFCSVFKPAMPRSVVGTACMYFKRFYLNNSVMEYHPRIIMLTCAFLACKVDEFNVSSPQFVGNLRESPLGQEKALEQILEYELLLIQQLNFHLIVHNPYRPFEGFLIDLKTRYPILENPEILRKTADDFLNRIALTDAYLLYTPSQIALTAILSSASRAGITMESYLSESLMLKENRTCLSQLLDIMKSMRNLVKKYEPPRSEEVAVLKQKLERCHSAELALNVITKKRKGYEDDDYVSKKSKHEEEEWTDDDLVESL

Common to all, as to assay: SPR
For orientation: In SPR one partner is held on a chip, and binding of the other changes the refractive index at the surface.

For assay [1], the target named is B1.
Assay [2] has as its target B1.
The next assay concerns the target Ece1-III.

Take EDIDSVVAGIIADMPFVVRAVDTAMTSVASTKR [Ece1-IV, synthetic peptide]: in assay [1], the Kd stood at 5.98 µM. In addition, the koff in assay [2] was found to be 0.000297 s⁻¹.

In the assay with Ece1-III, B1 showed a Kd of 17.2 nM and a koff of 0.00171 s⁻¹.

Consider DVAPAAPAAPADQAPTVPAPQEFNTAITKR [Ece1-II, synthetic peptide], for which the Kd in assay [1] was found to be 9.13 µM. Moreover, the koff in assay [2] amounted to 0.00415 s⁻¹.

For the molecule DGANDDVANAVVRLPEIVARVATGVQQSIENAKR [Ece1-V, synthetic peptide], the Kd in assay [1] worked out at 3.16 µM. Also, the koff in assay [2] was 0.000719 s⁻¹.

One may read the Kd as the constant that tells how readily two partners part at equilibrium. As usually defined, the koff is the rate constant with which the complex falls apart.
